In PMC8401255:

Molecular target: gramicidin A (Bacillus brevis)
Test: single-channel electrophysiology on a planar lipid bilayer; gA in a free-standing DPhPC planar bilayer (painting method, n-decane); dimer (channel) lifetime recorded with an Axopatch amplifier for 30 min at 20 °C; lidocaine or tetracaine in the buffer at 1, 3, 6 and 10 mM; lifetime normalised to that without local anesthetic (tau/tau0); monomer to dimer

Substance: gramicidin A (peptide)
- normalized dimer lifetime (tau/tau0) at 1 mM lidocaine: 1.33
- normalized dimer lifetime (tau/tau0) at 1 mM tetracaine: 1.88
- normalized dimer lifetime (tau/tau0) at 10 mM lidocaine: 3.66
- normalized dimer lifetime (tau/tau0) at 10 mM tetracaine: 6.85
